From PMC10242683, “Catalytic Cycle of the Bifunctional Enzyme Phosphoribosyl-ATP Pyrophosphohydrolase/Phosphoribosyl-AMP Cyclohydrolase” (ACS Catalysis, 2023)

T1: phosphoribosyl-ATP pyrophosphohydrolase/phosphoribosyl-AMP cyclohydrolase (AbHisIE) (Acinetobacter baumannii, UniProt V5VH18)
T1 construct: gene hisIE; full-length AbHisIE (A. baumannii strain ATCC17978), recombinant
T1 sequence (V5VH18 1-257): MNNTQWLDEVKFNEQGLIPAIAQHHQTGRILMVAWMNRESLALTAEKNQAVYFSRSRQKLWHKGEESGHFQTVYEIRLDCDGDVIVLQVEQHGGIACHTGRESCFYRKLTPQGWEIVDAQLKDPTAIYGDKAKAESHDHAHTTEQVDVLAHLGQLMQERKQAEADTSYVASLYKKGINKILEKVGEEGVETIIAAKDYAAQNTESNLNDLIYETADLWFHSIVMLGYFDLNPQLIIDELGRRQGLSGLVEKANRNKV


What was measured:
[1] = biological target: T1, phosphoribosyl-ATP pyrophosphohydrolase/phosphoribosyl-AMP cyclohydrolase (AbHisIE); experiment: initial rates of ProFAR formation from PRATP at […] nm, dose-response with purified AbHisIE; type: biochemical
purified protein [2] = substrate: N=c1c2ncn([C@@H]3O[C@H](COP(=O)(O)O)[C@@H](O)[C@H]3O)c2ncn1[C@@H]1O[C@H](COP(=O)(O)O)[C@@H](O)[C@H]1O; experiment: purified protein; type: biochemical, Acinetobacter baumannii; details: Zn2+ (HisI-like domain) cyclohydrolase active site in the N-terminal HisI-like domain
purified protein [3] = substrate: N=c1c2ncn([C@@H]3O[C@H](COP(=O)(O)OP(=O)(O)OP(=O)(O)O)[C@@H](O)[C@H]3O)c2ncn1[C@@H]1O[C@H](COP(=O)(O)O)[C@@H](O)[C@H]1O; experiment: purified protein; type: biochemical, Acinetobacter baumannii; details: Mg2+ (HisE-like domain); Zn2+ (HisI-like domain) pyrophosphohydrolase active site in the C-terminal HisE-like domain

Row | Molecule | IC50 [1] | Km (purified protein [2]) | Km (purified protein [3]) | kcat (purified protein [3])
1 | N=c1c2ncn([C@@H]3O[C@H](COP(=O)(O)OP(=O)(O)O)[C@@H](O)[C@H]3O)c2ncn1[C@@H]1O[C@H](COP(=O)(O)O)[C@@H](O)[C@H]1O [PRADP] | 52 ± 4 µM |  |  | 
2 | phosphoribosyl-ATP pyrophosphohydrolase/phosphoribosyl-AMP cyclohydrolase (AbHisIE) (Acinetobacter baumannii) (protein, full-length AbHisIE (A. baumannii strain ATCC17978), recombinant) MNNTQWLDEVKFNEQGLIPAIAQHHQTGRILMVAWMNRESLALTAEKNQAVYFSRSRQKLWHKGEESGHFQTVYEIRLDCDGDVIVLQVEQHGGIACHTGRESCFYRKLTPQGWEIVDAQLKDPTAIYGDKAKAESHDHAHTTEQVDVLAHLGQLMQERKQAEADTSYVASLYKKGINKILEKVGEEGVETIIAAKDYAAQNTESNLNDLIYETADLWFHSIVMLGYFDLNPQLIIDELGRRQGLSGLVEKANRNKV |  | 11 µM | 4.0 ± 0.7 µM | 5.6 ± 0.3 s⁻¹
